Data reported in the supplement of paper PMC12764529.
± gives the half width of the 95% confidence interval.

What was measured:
[1] = folding stability dG unfold from trypsin proteolysis; higher = more stable
Protocol: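 Folding stability of de novo designed mini-proteins (<80 aa, no Cys; designed by TrROS, TrMRF, ProteinMPNN and the joint model) was measured by cDNA display proteolysis with trypsin and chymotrypsin. Each protease was used at 11 concentrations in a threefold dilution series plus a no-protease condition. K50 was inferred by Bayesian fitting of sequencing counts, and dG unfold was derived against a sequence-predicted unfolded-state K50 (Tsuboyama et al. method). Sequences shown include variable-length N-terminal GS-type padding (SAGGSAGG...) inside a display construct carrying a PA tag. Rows were kept only if the AF2 dimer inter-PAE was >15, to exclude likely homo-oligomers.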

[2] = folding stability dG unfold (combined trypsin and chymotrypsin); higher = more stable
How it was run: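 K50 was inferred by Bayesian fitting of sequencing counts obtained after protease digestion of designed mini-proteins. Unfolding free energy was derived by comparison with a sequence-predicted unfolded-state K50 and a shared folded-state K50, for each protease or both combined. The mini-proteins were under 80 residues, had no cysteine, were carried in a PA-tagged cDNA display construct, and were kept only if AlphaFold2 dimer inter-PAE exceeded 15.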

SAGGSAGGSAGGMVRFPDGKEVETESEEELEELLKGVPVEEITIEDPEEKGEKKIPVKLSAGGSAGGSAGGS [r10_1191_JUSTAS]
folding stability dG unfold [1]: 0.137 ± 0.044 kcal/mol
folding stability dG unfold [2]: -0.942 ± 0.48 kcal/mol

SAGGSAGGSAGGNEDDNVPIGEKTVVKKVPPSSPVTITETIYRRPSTGTTSTTEKVIIESAGGSAGGSAGGS [r10_6_JUSTAS]
folding stability dG unfold [1]: -1.12 ± 0.42 kcal/mol
folding stability dG unfold [2]: < -1 kcal/mol

SAGGSAGGSAGGNKEVEIPIMIYWPDPNGKPNMHTVEIDMPNNDLPDIKDWAEDNPWTIMSAGGSAGGSAGG [r7_539_TrROS]
folding stability dG unfold [1]: 0.287 ± 0.05 kcal/mol
folding stability dG unfold [2]: -0.532 ± 0.22 kcal/mol

SAGGSAGGSAGGPSAVSSSSSSRTTTVPGTGTPLRVSSTTTTLDAATGASTTTTTTSPGASAGGSAGGSAGG [r11_1029_JUSTAS]
folding stability dG unfold [1]: -0.553 ± 0.13 kcal/mol
folding stability dG unfold [2]: < -1 kcal/mol

SAGGSAGGSAGGSAVERIIKEMREKFPPGKEVEIPIEVRTDNGNYVPIEIEFRIPPDQPSAGGSAGGSAGGS [r10_11_TrROS]
folding stability dG unfold [1]: -0.557 ± 0.4 kcal/mol
folding stability dG unfold [2]: < -1 kcal/mol

SAGGSAGGSAGGSGPEPKFTVEVDPEKDEVTFLVELEDKPLLLVVKDWPEDDPLLKNAFSAGGSAGGSAGGS [r4_328_TrMRF]
folding stability dG unfold [1]: 0.388 ± 0.097 kcal/mol
folding stability dG unfold [2]: 0.0825 ± 0.29 kcal/mol

SAGGSAGGSAGGSGSSIPIVVEEKPEVSEDPSRVVLTTKIILKDPNGNSIETITEVELKSAGGSAGGSAGGS [r4_75_JUSTAS]
folding stability dG unfold [1]: -0.492 ± 0.066 kcal/mol
folding stability dG unfold [2]: < -1 kcal/mol

SAGGSAGGSAGGSKKTLPFPSVEDVVKYLKDLGLKDVKVDLPPGDLTINLDEIEEALKESAGGSAGGSAGGS [r4_101_TrMRF]
folding stability dG unfold [1]: -0.957 ± 0.57 kcal/mol
folding stability dG unfold [2]: < -1 kcal/mol

SAGGSAGGSAGGSMPVEILEVEEADPETGIRTYKLRDPVIGVESTIEGPLSPEEIEALLSAGGSAGGSAGGS [r4_228_JUSTAS]
folding stability dG unfold [1]: -0.808 ± 0.55 kcal/mol
folding stability dG unfold [2]: < -1 kcal/mol

SAGGSAGGSAGGSMPYVVVVKYPDGSTVTFPPGEDINVKVSPDKKGVEVVSVVPLSELLSAGGSAGGSAGGS [r4_122_JUSTAS]
folding stability dG unfold [1]: 0.179 ± 0.054 kcal/mol
folding stability dG unfold [2]: -0.332 ± 0.2 kcal/mol

SAGGSAGGSAGGSMYVIVTVPPGERLTFPLNPEIDVPEEEIKEKLKKELPVESIEILLPSAGGSAGGSAGGS [r4_116_JUSTAS]
folding stability dG unfold [1]: -0.362 ± 0.19 kcal/mol
folding stability dG unfold [2]: -0.813 ± 0.99 kcal/mol

SAGGSAGGSAGGSPLIVEFKGDELRNTIPSGFEVLSEERDPELGYVRAALRALGSGETLSAGGSAGGSAGGS [r4_435_TrMRF]
folding stability dG unfold [1]: -0.707 ± 0.27 kcal/mol
folding stability dG unfold [2]: < -1 kcal/mol

SAGGSAGGSAGGTEEEALEKAERLAKELGVDLKDVKILNPPDKFEAVFTIPGTGENIKLSAGGSAGGSAGGS [r10_161_JUSTAS]
folding stability dG unfold [1]: -0.505 ± 0.46 kcal/mol
folding stability dG unfold [2]: -0.601 ± 0.97 kcal/mol

SAGGSAGGSAGGTIRDAVKEGKPFKIRMRGKKGKTHTVTIRPDKPVKLPGISSIQVERDSAGGSAGGSAGGS [r10_700_TrROS]
folding stability dG unfold [1]: -0.285 ± 0.27 kcal/mol
folding stability dG unfold [2]: -0.707 ± 0.8 kcal/mol

SAGGSAGGSAGGTPFKAKDPKTDKVYLGEKDPVSGKVTITDPNTGNPIIVPGGEIEFIVSAGGSAGGSAGGS [r10_28_JUSTAS]
folding stability dG unfold [1]: 0.00952 ± 0.041 kcal/mol
folding stability dG unfold [2]: -0.282 ± 0.16 kcal/mol

SAGGSAGGSAGGVVKFPDDVLIERVETLPDGTVKIKVYKRIPGKGSPVEEIEFEDPGSSSAGGSAGGSAGGS [r10_934_JUSTAS]
folding stability dG unfold [1]: 0.235 ± 0.024 kcal/mol
folding stability dG unfold [2]: < -1 kcal/mol

SAGGSAGGSAGGWKTISVNELQDILREEGKPMTADDLIEDPNIKVEENPGNGMPTIEIPPSAGGSAGGSAGG [r7_180_TrROS]
folding stability dG unfold [1]: -0.891 ± 0.24 kcal/mol
folding stability dG unfold [2]: -0.77 ± 0.79 kcal/mol

SAGGSAGGSAGGYFIRYPGNGREIMIPPDDIEDFLDTLPPGFPPENVKIYPFDPNGKPISAGGSAGGSAGGS [r10_13_TrROS]
folding stability dG unfold [1]: -0.242 ± 0.2 kcal/mol
folding stability dG unfold [2]: < -1 kcal/mol

SAGGSAGGSAGKITIHMDPEGNYMVKTPGNERQFDSPEDADELADEFLLNGLPIEIHPHPSAGGSAGGSAGG [r17_35_TrROS]
folding stability dG unfold [1]: -0.753 ± 0.36 kcal/mol
folding stability dG unfold [2]: < -1 kcal/mol

SAGGSAGGSAGKKVVTIDIPIDNPEELEVAEEIAREAAKELGVPPEEIPVTWEGNYLRIESAGGSAGGSAGG [r11_218_TrMRF]
folding stability dG unfold [1]: -0.423 ± 0.075 kcal/mol
folding stability dG unfold [2]: < -1 kcal/mol

SAGGSAGGSAGKSPSESEVVITPETGVVEENGVKIKVTLTITTYSPSSTVTSTTKDPKLLSAGGSAGGSAGG [r11_551_JUSTAS]
folding stability dG unfold [1]: -0.0836 ± 0.045 kcal/mol
folding stability dG unfold [2]: -0.356 ± 0.15 kcal/mol

SAGGSAGGSAGLNITYTTTITYPDGTVVTEPVVSSGSLEEAIARARELEKKHPNVEVEVSPEGSAGGSAGGS [r12_268_JUSTAS]
folding stability dG unfold [1]: 0.396 ± 0.079 kcal/mol
folding stability dG unfold [2]: -0.113 ± 0.23 kcal/mol

SAGGSAGGSAGMELAEEVARKGKPGTLVTFTPPGGRVQLATVRGDEVTPSGLSPDYSVTLTSAGGSAGGSAG [r3_244_JUSTAS]
folding stability dG unfold [1]: -0.371 ± 0.26 kcal/mol
folding stability dG unfold [2]: < -1 kcal/mol
